Reference: the supplement of paper PMC11246515
± gives the standard deviation of the averaged measurements.

Assay: total protein half-life in vivo (active degradation + dilution); higher = more stable protein
[1] = E. coli NCM3722 delta-clpP delta-lon delta-hslV, growth: N-lim chemostat, doubling time 6 h
[2] = E. coli NCM3722 delta-clpP, growth: N-lim chemostat, doubling time 6 h
[3] = E. coli NCM3722 delta-hslV, growth: N-lim chemostat, doubling time 6 h
[4] = E. coli NCM3722 delta-lon, growth: N-lim chemostat, doubling time 6 h
[5] = E. coli NCM3722 delta-smpB, growth: N-lim chemostat, doubling time 6 h
[6] = wild type E. coli NCM3722, growth: C-lim chemostat, doubling time 3 h
[7] = wild type E. coli NCM3722, growth: C-lim chemostat, doubling time 6 h
[8] = wild type E. coli NCM3722, growth: C-lim chemostat, doubling time 12 h
[9] = wild type E. coli NCM3722, growth: N-lim chemostat, doubling time 6 h
[10] = wild type E. coli NCM3722, growth: N-lim chemostat, doubling time 12 h
[11] = wild type E. coli NCM3722, growth: P-lim chemostat, doubling time 6 h
[12] = wild type E. coli NCM3722, growth: P-lim chemostat, doubling time 12 h

Row | Sequence | total protein half-life in vivo [1] | total protein half-life in vivo [2] | total protein half-life in vivo [3] | total protein half-life in vivo [4] | total protein half-life in vivo [5] | total protein half-life in vivo [6] | total protein half-life in vivo [7] | total protein half-life in vivo [8] | total protein half-life in vivo [9] | total protein half-life in vivo [10] | total protein half-life in vivo [11] | total protein half-life in vivo [12]
1 | MSGSNTAISRRRLLQGAGAMWLLSVSQVSLAAVSQVVAVRVWPASSYTRVTVESNRQLKYKQFALSNPERVVVDIEDVNLNSVLKGMAAQIRADDPFIKSARVGQFDPQTVRMVFELKQNVKPQLFALAPVAGFKERLVMDLYPANAQDMQDPLLALLEDYNKGDLEKQVPPAQSGPQPGKAGRDRPIVIMLDPGHGGEDSGAVGKYKTREKDVVLQIARRLRSLIEKEGNMKVYMTRNEDIFIPLQVRVAKAQKQRADLFVSIHADAFTSRQPSGSSVFALSTKGATSTAAKYLAQTQNASDLIGGVSKSGDRYVDHTMFDMVQSLTIADSLKFGKAVLNKLGKINKLHKNQVEQAGFAVLKAPDIPSILVETAFISNVEEERKLKTATFQQEVAESILAGIKAYFADGATLARRG | 4.83 ± 0.39 h | 5.68 ± 1.5 h | 5.1 ± 0.2 h | 5.12 ± 0.18 h | 4.18 ± 0.3 h | 2.74 ± 0.23 h | 4.852 ± 0.02 h | 9.06 ± 0.98 h | 5.19 ± 1.1 h | 8.626 ± 0.061 h | 5.29 ± 0.18 h | 10.4 ± 0.28 h
2 | MELLLLSNSTLPGKAWLEHALPLIAEQLQGRRSAVFIPFAGVTQTWDDYTAKTAAVLAPLGVSVTGIHSVVDPVAAIENAEIVIVGGGNTFQLLKQCRERGLLAPITDVVKRGALYIGWSAGANLACPTIRTTNDMPIVDPQGFDALNLFPLQINPHFTNALPEGHKGETREQRIRELLVVAPELTIIGLPEGNWITVSKGHATLGGPNTTYVFKAGEEAVPLEAGHRF [P0A7C6] | 3.28 h |  |  |  |  | 3.03 h | 4.93 ± 0.56 h | 9.36 h | 4.73 h | 5.8 h | 5.69 ± 0.077 h | 11.1 ± 0.86 h
3 | MLLNALASLGHKGIKTLRTFGRAGLMLFNALVGKPEFRKHAPLLVRQLYNVGVLSMLIIVVSGVFIGMVLGLQGYLVLTTYSAETSLGMLVALSLLRELGPVVAALLFAGRAGSALTAEIGLMRATEQLSSMEMMAVDPLRRVISPRFWAGVISLPLLTVIFVAVGIWGGSLVGVSWKGIDSGFFWSAMQNAVDWRMDLVNCLIKSVVFAITVTWISLFNGYDAIPTSAGISRATTRTVVHSSLAVLGLDFVLTALMFGN |  | 6.31 h | 6.03 h | 4.82 h | 5.29 h | 3.19 h |  |  | 7.45 h | 11.3 h | > 8 h | 11.55 ± 0.11 h
4 | MGQSKKLNKQPSSLSPLVQLAGIRKCFDGKEVIPQLDLTINNGEFLTLLGPSGCGKTTVLRLIAGLETVDSGRIMLDNEDITHVPAENRYVNTVFQSYALFPHMTVFENVAFGLRMQKTPAAEITPRVMEALRMVQLETFAQRKPHQLSGGQQQRVAIARAVVNKPRLLLLDESLSALDYKLRKQMQNELKALQRKLGITFVFVTHDQEEALTMSDRIVVMRDGRIEQDGTPREIYEEPKNLFVAGFIGEINMFNATVIERLDEQRVRANVEGRECNIYVNFAVEPGQKLHVLLRPEDLRVEEINDDNHAEGLIGYVRERNYKGMTLESVVELENGKMVMVSEFFNEDDPDFDHSLDQKMAINWVESWEVVLADEEHK | 7.21 ± 0.97 h |  | 5.83 ± 0.062 h | 5.7 ± 0.78 h | 5.77 ± 0.36 h | 3.46 ± 0.65 h | 6.55 ± 0.38 h | 11.9 ± 0.32 h |  | 12.2 ± 0.83 h | 6.41 ± 0.34 h | 13.4 ± 0.35 h
5 | MAIKLIAIDMDGTLLLPDHTISPAVKNAIAAARARGVNVVLTTGRPYAGVHNYLKELHMEQPGDYCITYNGALVQKAADGSTVAQTALSYDDYRFLEKLSREVGSHFHALDRTTLYTANRDISYYTVHESFVATIPLVFCEAEKMDPNTQFLKVMMIDEPAILDQAIARIPQEVKEKYTVLKSAPYFLEILDKRVNKGTGVKSLADVLGIKPEEIMAIGDQENDIAMIEYAGVGVAMDNAIPSVKEVANFVTKSNLEDGVAFAIEKYVLN [P0A8Y5] | 4 ± 0.43 h | 3.61 ± 0.23 h | 3.55 ± 0.38 h | 3.69 ± 0.1 h | 3.408 ± 0.021 h | 3.08 ± 0.22 h | 5.71 ± 0.32 h | 9.92 ± 0.27 h | 3.52 ± 0.2 h | 5.28 ± 0.29 h | 5.06 ± 0.13 h | 11.4 ± 0.92 h
6 | MKKATCLTDDQRWQSVLARDPNADGEFVFAVRTTGIFCRPSCRARHALRENVSFYANASEALAAGFRPCKRCQPEKANAQQHRLDKITHACRLLEQETPVTLEALADQVAMSPFHLHRLFKATTGMTPKAWQQAWRARRLRESLAKGESVTTSILNAGFPDSSSYYRKADETLGMTAKQFRHGGENLAVRYALADCELGRCLVAESERGICAILLGDDDATLISELQQMFPAADNAPADLMFQQHVREVIASLNQRDTPLTLPLDIRGTAFQQQVWQALRTIPCGETVSYQQLANAIGKPKAVRAVASACAANKLAIIIPCHRVVRGDGTLSGYRWGVSRKAQLLRREAENEER |  | 3.82 ± 0.28 h | 2.03 h | 3.25 ± 0.14 h | 2.46 h |  | 3.38 h | 4.07 h | 2.22 h | 3.48 h | 1.81 h | 3.5 ± 0.11 h
7 | MGAYLIRRLLLVIPTLWAIITINFFIVQIAPGGPVDQAIAAIEFGNAGVLPGAGGEGVRASHAQTGVGNISDSNYRGGRGLDPEVIAEITHRYGFDKPIHERYFKMLWDYIRFDFGDSLFRSASVLTLIKDSLPVSITLGLWSTLIIYLVSIPLGIRKAVYNGSRFDVWSSAFIIIGYAIPAFLFAILLIVFFAGGSYFDLFPLRGLVSANFDSLPWYQKITDYLWHITLPVLATVIGGFAALTMLTKNSFLDEVRKQYVVTARAKGVSEKNILWKHVFRNAMLLVIAGFPATFISMFFTGSLLIEVMFSLNGLGLLGYEATVSRDYPVMFGTLYIFTLIGLLLNIVSDISYTLVDPRIDFEGR [P0AFU0] | 7.09 ± 0.14 h | 5.97 h | 6.39 ± 0.7 h | 5.52 ± 0.49 h | 5.85 ± 0.32 h | 3.47 ± 0.61 h | 5.83 ± 1.1 h | 13.9 ± 1.7 h | 5.33 h | 11.8 ± 1.6 h | 6.2 h | 12.4 ± 0.79 h
8 | MAEKFIKHTGLVVPLDAANVDTDAIIPKQFLQKVTRTGFGAHLFNDWRFLDEKGQQPNPDFVLNFPQYQGASILLARENFGCGSSREHAPWALTDYGFKVVIAPSFADIFYGNSFNNQLLPVKLSDAEVDELFALVKANPGIHFDVDLEAQEVKAGEKTYRFTIDAFRRHCMMNGLDSIGLTLQHDDAIAAYEAKQPAFMN | 3.91 ± 0.1 h | 1.33 ± 0.047 h | 2.363 ± 0.02 h | 3.85 ± 0.072 h | 2.306 ± 0.018 h | 1.96 ± 0.16 h | 3.02 ± 0.097 h | 3.926 ± 0.038 h | 2.54 ± 0.17 h | 4.05 ± 1.3 h | 2.1 ± 0.28 h | 5.15 ± 0.8 h
